{"source": "patent US20250352611A1", "about": "“METHODS FOR TREATING CATARACTS USING POLYPEPTIDES” (REJUKON BIOPHARM INC., priority 2022, published 2025)", "key": {"[1]": {"target": "T1, γD-crystallin (Homo sapiens, UniProt P07320)", "T1 construct": "Wild-type human full-length γD-crystallin gene were inserted into pET14b vectors; made in house; host or cells: E. coli BL21 (DE3)", "T1 sequence (P07320 1-174)": "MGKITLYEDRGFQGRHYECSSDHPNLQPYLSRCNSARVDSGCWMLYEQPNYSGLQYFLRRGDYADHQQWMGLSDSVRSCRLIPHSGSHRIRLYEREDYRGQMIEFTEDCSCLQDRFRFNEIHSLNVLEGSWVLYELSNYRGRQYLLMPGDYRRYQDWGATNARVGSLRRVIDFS", "assay": "1H-15N HSQC NMR of γD-crystallin with peptide", "format": "binding", "parameters": "interaction with γD-crystallin from chemical shift difference (CSD): dose or concentration left out as unconfirmed", "method": "To evaluate whether a protein undergoes small or significant structural changes before and after adding polypeptides, ^1H-^15N HSQC spectroscopy is a useful tool and can be used as a “fingerprint” of the three-dimensional structure. […] Wild-type human full-length γD-crystallin gene were inserted into pET14b vectors. E. coli BL21 (DE3) cells were transformed with these vectors. For protein production, cells were grown at 37° C. to an absorbance at 600 nm of 0.6 and induced by the addition of 0.5 mM IPTG at 37° C. for 4 h. For the N15 labeling of the protein, the transformed E. coli BL21(DE3) cells were cultured and induced in M9 medium with NH4Cl as the only nitrogen source. […] Using final 300 uM human γD-crystallin at 25° C., the two-dimensional [^1H-^15N] heteronuclear single quantum coherence (HSQC) spectra were recorded to determine the domain interactions at the residue-specific level.\nChemical shift difference (CSD) was measured for γD-crystallin alone or with Champ-E(RJK001). […]\nHSQC spectrums were acquired and analysis with ccpNMR, amide ^1H-^15N combined chemical shift differences were calculated using the equation Δδ=[(0.125ΔδN)^2+ΔδH^2]^1/2. […]\nThe N15 labeled protein was mix with the unlabeled peptide with the ratio of 1:0, 1:2. […] Amide ^1H-^15N combined chemical shift differences were calculated using the equation Δδ) [(0.125ΔδN)^2+ΔδH^2]. Intensity changes were calculated by I/I0. […]"}, "[2]": {"tested_on": "γD (W42D) aggregates in the SH-SY5Y cell", "assay": "γD (W42D) aggregates in SH-SY5Y cells, live imaging and CellProfiler analysis", "format": "cell-based", "conditions": "20 uM, added every 4 hours for a total of 24 hours", "method": "Cells were grown in a 12-well plate (1×10^5 cells per well) for 24 hours and transfected with γD (W42D) plasmid using EZtrans transfection reagent. 24 hours after transfection, Champ peptides RJK001 (final concentration of 20 uM) and RJK0012 (final concentration of 10 uM and 20 uM) were added into SH-SY5Y cell culture medium every 4 hours for a total of 24 hours. The effect of RJK001 and RJK012 polypeptide on the γD (W42D) aggregates in the SH-SY5Y cell mode were analyzed using a custom CellProfiler software. Briefly, cell bodies were then segmented and identified by the GFP fluorescence channel images and tracing outward to the limits of the cytoplasmic (using a diameter cutoff of 100-300 pixels). The cell bodies were used as masks to eliminate imaging artifacts outside of cell boundaries, such as background fluorescence or dead cells. After masking, punctate structures were enhanced by image processing for speckle-like features that were 10 pixels in diameter for SH-SY5Y cells and these punctate structures were then annotated as features such as γD (W42D) puncta. Finally, the total image area which was enclosed in each of the identified features (number of cell and punctate) was calculated and output to spreadsheets. At least 200 cells per sample were analyzed. […]\nGranules screen and assay images were segmented and image features quantified using a custom CellProfiler and ImageJ software. […] The effect of RJK001 and RJK012 polypeptide on the γD ([…]) aggregates in the SH-SY5Y cell mode were analyzed using a custom CellProfiler software. Briefly, cell bodies were then segmented and identified by the GFP fluorescence channel images and tracing outward to the limits of the cytoplasmic (using a diameter cutoff of 100-300 pixels). The cell bodies were used as masks to eliminate imaging artifacts outside of cell boundaries, such as background fluorescence or dead cells. […] Finally, the total image area which was enclosed in each of the identified features (number of cell and punctate) was calculated and output to spreadsheets. At least 200 cells per sample were analyzed."}}, "data": [{"sequence": "TEPQEESEEEVEEPEERQQTPEVVPDDSGTFYDQTVSNDLE [RJK001, polypeptide with hydrophilic and hydrophobic segment, expressed in E. coli]", "values": [{"measurement": "1H-15N HSQC spectra of γD-crystallin prior to and after peptide incubation", "setting": "[1]; 300 uM 15N γD-crystallin, molar ratio 1:2, 25° C.", "result": "significant chemical shifts"}, {"measurement": "interaction with γD-crystallin from chemical shift difference (CSD)", "setting": "[1]; molar ratio γD-crystallin:RJK001 1:2", "result": "interacted with the full-length wildtype γD-crystallin protein"}, {"measurement": "number of γD (W42D) aggregates in the SH-SY5Y cell", "setting": "[2]", "result": "reduced the number of γD (W42D) aggregates in the SH-SY5Y cell in a time-dependent manner until 12 hours"}]}]}
